{
  "source": "patent US20230076357A1",
  "experiment_in_all_cases": "cell-based or functional assay",
  "key": {"[1]": {"biological_target": "nCas9-LZ1 (NLS-SpCas9(H840A)-NLS-EE12RR345L(leucine zipper)) (Streptococcus pyogenes serotype M1) (UniProt Q99ZW2)"}, "[2]": {"biological_target": "nCas9(1-1172)-Npu N intein (Streptococcus pyogenes serotype M1) (UniProt Q99ZW2)"}, "[3]": {"biological_target": "constitutively active SAMHD1 (SAMHD1 (T592A)) (UniProt Q9Y3Z3)", "sequence (Q9Y3Z3 whole entry T592A)": "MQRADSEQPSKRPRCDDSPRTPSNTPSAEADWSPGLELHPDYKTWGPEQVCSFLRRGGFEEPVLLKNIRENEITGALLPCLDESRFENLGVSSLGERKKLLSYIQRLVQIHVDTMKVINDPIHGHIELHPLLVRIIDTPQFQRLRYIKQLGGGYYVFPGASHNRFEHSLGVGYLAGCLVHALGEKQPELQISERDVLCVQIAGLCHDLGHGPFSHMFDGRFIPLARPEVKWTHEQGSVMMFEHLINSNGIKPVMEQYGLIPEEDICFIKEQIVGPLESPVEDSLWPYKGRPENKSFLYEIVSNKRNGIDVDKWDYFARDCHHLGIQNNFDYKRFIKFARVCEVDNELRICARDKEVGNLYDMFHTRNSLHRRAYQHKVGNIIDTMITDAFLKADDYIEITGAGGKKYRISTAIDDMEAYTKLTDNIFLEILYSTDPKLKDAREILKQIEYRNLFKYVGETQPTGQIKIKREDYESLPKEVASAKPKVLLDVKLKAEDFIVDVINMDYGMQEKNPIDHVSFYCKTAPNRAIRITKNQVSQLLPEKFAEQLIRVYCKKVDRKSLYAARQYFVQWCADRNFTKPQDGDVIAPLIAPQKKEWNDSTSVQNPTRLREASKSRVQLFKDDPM"}},
  "data": [
    {"substance": "LZ2-mlvRT (RR12EE345L(leucine zipper)-mlvRTv(D200N, L603W, T306K, W313F, T330P)-NLS) (enzyme)", "values": [
      {"measurement": "editing efficiency (BFP to GFP conversion in HEK293T-BFP cells)", "setting": "[1]", "value": 38, "unit": "%"}
    ]},
    {"substance": "Npu C intein-nCas9(1173-1368 with S1173C)-mlvRT5M (enzyme)", "values": [
      {"measurement": "editing efficiency (% GFP+)", "setting": "[2]", "value": 29, "unit": "%"}
    ]},
    {"substance": "VPX^RH2-1 (variant of VPX from HIV-2 clinical isolate RH2-1) (from UniProt P20881 1-112)", "values": [
      {"measurement": "editing efficiency with RW2I, edit 2 nt from the nick, SAMHD1 (T592A) coexpressed", "setting": "[3]", "value": 64, "unit": "%"}
    ]},
    {"substance": "Vpx peptide (Hiv2-rod Vpx) (from UniProt P06939 1-112)", "values": [
      {"measurement": "editing efficiency relative to that without SAMHD1^p-, edit 65 nt from the nick", "setting": "[3]", "value": 78, "unit": "%"}
    ]}
  ]
}
